Laboratory results from US20040121955A1.

B1: plasminogen (protein)
chain: EPLDDYVNTQGASLFSVTKKQLGAGSIEECAAKCEEDEEFTCRAFQYHSKEQQCVIMAENRKSSIIIRMRDVVLFEKKVYLSECKTGNGKNYRGTMSKTKNGITCQKWSSTSPHRPRFSPATHPSEGLEENYCRNPDNDPQGPWCYTTDPEKRYDYCDILECEEECMHCSGENYDGKISKTMSGLECQAWDSQSPHAHGYIPSKFPNKNLKKNYCRNPDRELRPWCFTTDPNKRWELCDIPRCTTPPPSSGPTYQCLKGTGENYRGNVAVTVSGHTCQHWSAQTPHTHNRTPENFPCKNLDENYCRNPDGKRAPWCHTTNSQVRWEYCKIPSCDSSPVSTEQLAPTAPPELTPVVQDCYHGDGQSYRGTSSTTTTGKKCQSWSSMTPHRHQKTPENYPNAGLTMNYCRNPDADKGPWCFTTDPSVRWEYCNLKKCSGTEASVVAPPPVVLLPDVETPSEEDCMFGNGKGYRGKRATTVTGTPCQDWAAQEPHRHSIFTPETNPRAGLEKNYCRNPDGDVGGPWCYTTNPRKLYDYCDVPQCAAPSFDCGKPQVEPKKCPGRVVGGCVAHPHSWPWQVSLRTRFGMHFCGGTLISPEWVLTAAHCLEKSPRPSSYKVILGAHQEVNLEPHVQEIEVSRLFLEPTRKDIALLKLSSPAVITDKVIPACLPSPNYVVADRTECFITGWGETQGTFGAGLLKEAQLPVIENKVCNRYEFLNGRVQSTELCAGHLAGGTDSCQGDSGGPLVCFEKDKYILQGVTSWGLGCARPNKPGVYVRVSRFVTWIEGVMRNN

Experiments:
[1] = biological target: VEGF receptors on bovine aortic endothelial cells; experiment: cell-based or functional assay
[2] = biological target: rPAI-123, P79335
rPAI-123, P79335, sequence (P79335 whole entry, looked up): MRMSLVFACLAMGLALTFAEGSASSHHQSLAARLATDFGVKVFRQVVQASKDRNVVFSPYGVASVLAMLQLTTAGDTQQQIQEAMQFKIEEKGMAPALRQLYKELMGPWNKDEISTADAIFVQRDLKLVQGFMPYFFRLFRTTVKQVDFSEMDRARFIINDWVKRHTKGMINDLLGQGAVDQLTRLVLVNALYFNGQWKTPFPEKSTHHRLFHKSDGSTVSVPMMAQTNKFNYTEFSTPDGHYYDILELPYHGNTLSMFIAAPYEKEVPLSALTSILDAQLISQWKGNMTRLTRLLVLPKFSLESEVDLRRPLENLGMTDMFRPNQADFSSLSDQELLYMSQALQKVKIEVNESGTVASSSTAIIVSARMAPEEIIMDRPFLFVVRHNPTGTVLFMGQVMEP

[3] = biological target: rPAI-1Δ23, P79335
rPAI-1Δ23, P79335, sequence (P79335 whole entry, looked up, stated change not applied): as the sequence (P79335 whole entry, looked up) above

| Molecule | apoptosis (Annexin V) in rPAI-123-treated BAEC versus PAEC [1] [%] | plasminogen cleavage (immunoblot probed for mini-plasminogen) [2] | plasminogen cleavage (immunoblot probed for mini-plasminogen) [3] |
| --- | --- | --- | --- |
| 125I-VEGF (ligand) | 60 | – | – |
| B1 | – | a distinct plasminogen cleavage product near 50 kDa in all reactions containing the rPAI-123 protein (3, 15 and 30 nM) | the rPAI-1?23 protein did not cleave plasminogen, even when increasing concentrations of the recombinant protein were added |
